Results reported in patent US20110130836A1, “Compositions and Methods for Use of Scar Tissue in Repair of Weight Bearing Surfaces” (LANX, INC., priority 2008, published 2011).

Biological target: T1, BMP-2 (Homo sapiens, UniProt P12643)
T1 sequence (P12643 283-396): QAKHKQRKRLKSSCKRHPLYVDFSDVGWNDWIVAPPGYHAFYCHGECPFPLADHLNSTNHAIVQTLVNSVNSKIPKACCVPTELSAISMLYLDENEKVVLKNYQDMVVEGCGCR
Assay: Inhibition of BMP-2 effects by SPP-24
Conditions: 50-fold (w/w) excess of SPP-24
From the text: Lyophilized SPP-24 is ground into a fine powder and combined with DBM. […] However, concentrations of growth factors in DBM vary by lot and preparation methodology. For example, Wildemann et al. reports BMP-2 concentrations of 0.004 g BMP-2 per gram total protein. Wildemann et al. (2007) Quantification of various growth factors in different demineralized bone matrix preparations. J. of Biomed. Mat. Res. Part A. 81A(2): 437-442. Thus, SPP to DBM ratios range from about 1:10 to about 2:1, for example, about 1:10, about 1:8, about 1:7, about 1:6, about 1:5, about 1:4, about 1:3, about 1:2, about 1:1, and about 2:1.

effects of BMP-2: completely ablates
B1: secreted phosphoprotein 24 (protein, UniProt Q13103 30-211, looked up)
Secreted phosphoprotein 24: FPVYDYDPSSLRDALSASVVKVNSQSLSPYLFRAFRSSLKRVEVLDENNLVMNLEFSIRETTCRKDSGEDPATCAFQRDYYVSTAVCRSTVKVSAQQVQGVHARCSWSSSTSESYSSEEMIFGDMLGSHKWRNNYLFGLISDESISEQFYDRSLGIMRRVLPPGNRRYPNHRHRARINTDFE
notes: BMP-2 antagonist
